Measured values from the supplement of paper PMC10724198.
± gives the standard deviation of the averaged measurements.

Key:
[1] = tested on: Saccharomyces cerevisiae; test: protein stability index of tFT-peptide fusion (C-terminal peptide) (PSI (0-1 scale)); higher = more stable (slower turnover)
Protocol: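 MPS profiling in S. cerevisiae of the tFT-X12 degron library: putative degron peptides plus stable controls, 12 aa, fused to the C-terminus of a sfGFP-mCherry timer. Cells are FACS-sorted into 8 mCherry/sfGFP bins and deep-sequenced. PSI runs from 0 (unstable) to 1 (stable). Backgrounds are wild type, das1Δ and doa10Δ at 30 °C, and wild type, das1Δ, cdc34-1 and cdc53-1 at 37 °C; 2-3 technical replicates each.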

[2] = tested on: Saccharomyces cerevisiae; test: as above; details: genetic background: wild type; temperature: 30 C
[3] = genetic background: cdc34-1, temperature: 37 C
[4] = genetic background: cdc53-1, temperature: 37 C
[5] = genetic background: das1 deletion, temperature: 30 C
[6] = genetic background: das1 deletion, temperature: 37 C
[7] = genetic background: doa10 deletion, temperature: 30 C
[8] = genetic background: wild type, temperature: 30 C
[9] = genetic background: wild type, temperature: 37 C
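Note: PSI is a weighted mean of sequencing reads over stability bins, variants kept only with over 10 reads, mCherry proximal and sfGFP distal, peptide attached via GGGS linker.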

Sequence | protein stability index [1, 3] | protein stability index [1, 4] | protein stability index [1, 5] | protein stability index [1, 6] | protein stability index [1, 7] | protein stability index [1, 8] | protein stability index [1, 9] | protein stability index [2]
FIFLFVALFCVF | 0.31 ± 0.039 | 0.343 ± 0.0083 | 0.327 ± 0.017 | 0.404 ± 0.014 | 0.328 ± 0.012 | 0.29 ± 0.021 | 0.365 ± 0.036 | 0.353 ± 0.067
FILIFLGILSCC | 0.409 ± 0.0092 | 0.453 ± 0.058 | 0.356 ± 0.026 | 0.463 ± 0.014 | 0.312 ± 0.0014 | 0.325 ± 0.025 | 0.4149 ± 0.0031 | 0.378 ± 0.04
FIYSVFFYSYWF | 0.36 ± 0.043 | 0.467 ± 0.033 | 0.287 ± 0.015 | 0.467 ± 0.0063 | 0.318 ± 0.025 | 0.272 ± 0.013 | 0.429 ± 0.017 | 0.363 ± 0.016
FLFLESFLFFYL | 0.5 ± 0.052 | 0.4797 ± 0.0046 | 0.418 ± 0.03 | 0.5698 ± 0.0026 | 0.502 ± 0.0079 | 0.411 ± 0.017 | 0.525 ± 0.055 | 0.499 ± 0.02
FLFVFLGVYGHV | 0.281 ± 0.02 | 0.409 ± 0.018 | 0.271 ± 0.044 | 0.494 ± 0.027 | 0.27 ± 0.0047 | 0.288 ± 0.029 | 0.46 ± 0.0054 | 0.404 ± 0.012
FLGPYTPGMYLA | 0.656 ± 0.031 | 0.7393 ± 0.0022 | 0.658 ± 0.015 | 0.7435 ± 0.0044 | 0.208 ± 0.011 | 0.258 ± 0.019 | 0.482 ± 0.0086 | 0.359 ± 0.037
FLISVRFVLILN | 0.169 ± 0.027 | 0.186 ± 0.012 | 0.175 ± 0.021 | 0.278 ± 0.01 | 0.143 ± 0.0081 | 0.135 ± 0.0052 | 0.208 ± 0.0085 | 0.173 ± 0.024
FLLFLPLLFFFL | 0.414 ± 0.037 | 0.396 ± 0.0095 | 0.396 ± 0.024 | 0.456 ± 0.013 | 0.4578 ± 0.0037 | 0.377 ± 0.018 | 0.4384 ± 0.0031 | 0.3904 ± 0.001
FLLHLVAHFSFL | 0.544 ± 0.014 | 0.571 ± 0.0063 | 0.517 ± 0.0071 | 0.531 ± 0.0066 | 0.473 ± 0.027 | 0.472 ± 0.017 | 0.503 ± 0.003 | 0.527 ± 0.044
FLLIVSSVSFYL | 0.209 ± 0.016 | 0.2981 ± 0.00045 | 0.213 ± 0.024 | 0.3885 ± 0.0014 | 0.177 ± 0.0069 | 0.207 ± 0.021 | 0.346 ± 0.0035 | 0.342 ± 0.052
FLLLSCLVRRSF | 0.508 ± 0.054 | 0.6 ± 0.018 | 0.454 ± 0.017 | 0.611 ± 0.01 | 0.404 ± 0.014 | 0.429 ± 0.0061 | 0.549 ± 0.018 | 0.4628 ± 0.00075
FLRFVFSFTFFV | 0.387 ± 0.0054 | 0.382 ± 0.019 | 0.408 ± 0.031 | 0.411 ± 0.0061 | 0.265 ± 0.0046 | 0.24 ± 0.028 | 0.3144 ± 0.0024 | 0.321 ± 0.0054
FLVGVARCPFLV | 0.632 ± 0.069 | 0.7 ± 0.015 | 0.587 ± 0.018 | 0.725 ± 0.053 | 0.244 ± 0.021 | 0.254 ± 0.034 | 0.401 ± 0.012 | 0.361 ± 0.012
FLVLLFCLFFCF | 0.463 ± 0.053 | 0.447 ± 0.021 | 0.43 ± 0.024 | 0.552 ± 0.015 | 0.524 ± 0.007 | 0.43 ± 0.033 | 0.4952 ± 0.0042 | 0.462 ± 0.026
FMCGWRMLVSVS | 0.0379 ± 0.032 | 0.0371 ± 0.0077 | 0.0474 ± 0.016 | 0.0676 ± 0.027 | 0.0307 ± 0.0023 | 0.0292 ± 0.011 | 0.045 ± 0.019 | 0.0594 ± 0.023
FPGLPVFFPPPL | 0.707 ± 0.052 | 0.766 ± 0.015 | 0.689 ± 0.026 | 0.769 ± 0.012 | 0.709 ± 0.039 | 0.703 ± 0.011 | 0.731 ± 0.012 | 0.726 ± 0.015
FPRLERVAVMAR | 0.117 ± 0.035 | 0.127 ± 0.035 | 0.177 ± 0.032 | 0.244 ± 0.0086 | 0.145 ± 0.0069 | 0.167 ± 0.025 | 0.221 ± 0.031 | 0.25 ± 0.011
FQILLRFFRSVA | 0.5907 ± 0.0037 | 0.657 ± 0.025 | 0.551 ± 0.022 | 0.612 ± 0.0079 | 0.189 ± 0.003 | 0.206 ± 0.029 | 0.4 ± 0.017 | 0.324 ± 0.017
FRAKRTVFQRNS | 0.671 ± 0.044 | 0.737 ± 0.039 | 0.668 ± 0.028 | 0.718 ± 0.01 | 0.2585 ± 0.0011 | 0.289 ± 0.0073 | 0.526 ± 0.021 | 0.441 ± 0.012
FRFFRPSFRFFC | 0.588 ± 0.015 | 0.713 ± 0.021 | 0.624 ± 0.0092 | 0.7518 ± 0.0026 | 0.107 ± 0.014 | 0.118 ± 0.0071 | 0.221 ± 0.033 | 0.2 ± 0.06

Sequence | protein stability index [1, 3] | protein stability index [1, 4] | protein stability index [1, 5] | protein stability index [1, 6] | protein stability index [1, 7] | protein stability index [1, 8] | protein stability index [1, 9] | protein stability index [2]
FRFPCSILMTLL | 0.578 ± 0.011 | 0.6111 ± 0.0035 | 0.538 ± 0.021 | 0.622 ± 0.026 | 0.196 ± 0.0043 | 0.197 ± 0.013 | 0.297 ± 0.036 | 0.258 ± 0.028
FRQEVLHWRQHS | 0.622 ± 0.064 | 0.712 ± 0.032 | 0.633 ± 0.035 | 0.727 ± 0.028 | 0.167 ± 0.048 | 0.145 ± 0.035 | 0.332 ± 0.015 | 0.342 ± 0.077
FRWLAFALLFGC | 0.416 ± 0.011 | 0.477 ± 0.027 | 0.38 ± 0.012 | 0.495 ± 0.025 | 0.1758 ± 0.00032 | 0.166 ± 0.018 | 0.348 ± 0.0068 | 0.245 ± 0.0079
FSARPFLYSFRP | 0.694 ± 0.024 | 0.743 ± 0.0082 | 0.667 ± 0.025 | 0.7416 ± 0.0052 | 0.653 ± 0.037 | 0.654 ± 0.0083 | 0.711 ± 0.0089 | 0.028 ± 0.0092
FSCEFKMSCLKS | 0.649 ± 0.04 | 0.701 ± 0.0097 | 0.601 ± 0.023 | 0.679 ± 0.016 | 0.474 ± 0.015 | 0.488 ± 0.029 | 0.605 ± 0.017 | 0.507 ± 0.011
FSIFFIIEFVGT | 0.179 ± 0.038 | 0.211 ± 0.0069 | 0.209 ± 0.015 | 0.374 ± 0.013 | 0.157 ± 0.011 | 0.187 ± 0.028 | 0.324 ± 0.022 | 0.242 ± 0.12
FSSYLSALLIVV | 0.102 ± 0.047 | 0.1279 ± 0.00017 | 0.176 ± 0.017 | 0.242 ± 0.0039 | 0.155 ± 0.0065 | 0.167 ± 0.029 | 0.214 ± 0.019 | 0.246 ± 0.012
FSYVGFFFLLGF | 0.417 ± 0.051 | 0.471 ± 0.0073 | 0.346 ± 0.021 | 0.494 ± 0.0069 | 0.392 ± 0.049 | 0.352 ± 0.025 | 0.467 ± 0.0053 | 0.414 ± 0.016
FTYCIVFFFSRL | 0.428 ± 0.024 | 0.537 ± 0.038 | 0.383 ± 0.038 | 0.571 ± 0.045 | 0.379 ± 0.011 | 0.391 ± 0.03 | 0.494 ± 0.021 | 0.457 ± 0.014
FTYFFFVRVLLV | 0.11 ± 0.045 | 0.14 ± 0.01 | 0.156 ± 0.031 | 0.2772 ± 0.00032 | 0.11 ± 0.0067 | 0.118 ± 0.0091 | 0.129 ± 0.0084 | 0.187 ± 0.0053
FVCSSVFVVLLF | 0.349 ± 0.017 | 0.423 ± 0.023 | 0.295 ± 0.029 | 0.4769 ± 0.001 | 0.264 ± 0.017 | 0.294 ± 0.054 | 0.464 ± 0.026 | 0.45 ± 0.044
FVFLCLLCISSF | 0.202 ± 0.0059 | 0.286 ± 0.011 | 0.214 ± 0.027 | 0.355 ± 0.006 | 0.193 ± 0.01 | 0.2 ± 0.03 | 0.3152 ± 0.0017 | 0.278 ± 0.012
FVGCFVFYLFLL | 0.422 ± 0.023 | 0.479 ± 0.016 | 0.418 ± 0.031 | 0.5184 ± 0.0036 | 0.394 ± 0.011 | 0.362 ± 0.035 | 0.458 ± 0.027 | 0.417 ± 0.013
FVRVFMASIIWC | 0.478 ± 0.032 | 0.487 ± 0.034 | 0.395 ± 0.029 | 0.508 ± 0.024 | 0.391 ± 0.012 | 0.376 ± 0.036 | 0.518 ± 0.013 | 0.452 ± 0.0082
FVVFAFGVLPVK | 0.496 ± 0.005 | 0.5131 ± 0.0027 | 0.389 ± 0.028 | 0.552 ± 0.012 | 0.361 ± 0.019 | 0.388 ± 0.039 | 0.514 ± 0.0089 | 0.466 ± 0.011
FVVRVVCRLGFF | 0.2226 ± 0.0011 | 0.338 ± 0.014 | 0.218 ± 0.027 | 0.374 ± 0.02 | 0.182 ± 0.0026 | 0.215 ± 0.012 | 0.3396 ± 0.0013 | 0.325 ± 0.015
FWFSFLLSGVCC | 0.24 ± 0.031 | 0.171 ± 0.013 | 0.272 ± 0.029 | 0.29 ± 0.0029 | 0.257 ± 0.012 | 0.268 ± 0.022 | 0.266 ± 0.016 | 0.347 ± 0.04
FWFVSVFIVFFC | 0.185 ± 0.0033 | 0.26 ± 0.021 | 0.222 ± 0.043 | 0.337 ± 0.022 | 0.179 ± 0.018 | 0.164 ± 0.034 | 0.279 ± 0.018 | 0.223 ± 0.026
FYLPGLFFVRFR | 0.167 ± 0.072 | 0.0822 ± 0.053 | 0.313 ± 0.043 | 0.33 ± 0.019 | 0.616 ± 0.037 | 0.272 ± 0.026 | 0.29 ± 0.04 | 0.391 ± 0.022
